# Data taken from article PMC9348634, “Insight into the mechanism of DNA synthesis by human terminal deoxynucleotidyltransferase”.
# Assays:
# Details in all cases: label: 5'-FAM; single strand
# [1] = molecular target: T1, terminal deoxynucleotidyltransferase (TdT) (human, UniProt P04053 1-509); experiment: MST; 5.0 mM Mg2+; MST with 5.0 mM Mg2+ (Mn2+ or Co2+ in other runs, concentration not given); buffer, salt, pH and temperature not in the material
# [2] = molecular target: T1, terminal deoxynucleotidyltransferase …; experiment: MST; Co2+; Kd treated by authors as estimate; MST with 5.0 mM Mg2+ (Mn2+ or Co2+ in other runs, concentration not given); buffer, salt, pH and temperature not in the material
# [3] = molecular target: T1, terminal deoxynucleotidyltransferase …; experiment: MST; Mn2+; Kd treated by authors as estimate; MST with 5.0 mM Mg2+ (Mn2+ or Co2+ in other runs, concentration not given); buffer, salt, pH and temperature not in the material
# T1 sequence (P04053 whole entry): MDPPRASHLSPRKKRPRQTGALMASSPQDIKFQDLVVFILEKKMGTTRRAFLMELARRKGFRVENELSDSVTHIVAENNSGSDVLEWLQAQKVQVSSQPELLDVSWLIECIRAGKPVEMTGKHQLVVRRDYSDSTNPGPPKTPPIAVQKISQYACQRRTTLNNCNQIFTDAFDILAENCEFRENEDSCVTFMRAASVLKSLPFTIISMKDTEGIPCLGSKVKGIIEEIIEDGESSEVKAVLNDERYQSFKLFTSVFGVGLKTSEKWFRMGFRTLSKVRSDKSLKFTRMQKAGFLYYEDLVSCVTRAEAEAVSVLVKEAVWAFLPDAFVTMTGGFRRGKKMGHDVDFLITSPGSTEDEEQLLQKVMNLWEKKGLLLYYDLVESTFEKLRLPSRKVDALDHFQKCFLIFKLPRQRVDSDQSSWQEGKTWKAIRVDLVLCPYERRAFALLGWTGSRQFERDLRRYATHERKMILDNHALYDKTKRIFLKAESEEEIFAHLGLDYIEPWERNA
binder,measurement,setting,value
GGAAGA (ssDNA) [DNA primer FAM-GGAAGA],Kd,[1],4.6 ± 0.1 µM
same,Kd,[2],700 ± 100 nM
same,Kd,[3],800 ± 200 nM
